Literature values, collected in publication PMC11172262.

Biological target: Claudin-1 (Homo sapiens) (UniProt O95832)

## Claudin-1 ECL1 (from UniProt O95832)
  Kd: 47 nM
